Results published in patent US20060211003.

Tested on: putative Thermus thermophilus Pol III ε-subunit

In the case of “Thermus thermophilus DNA Pol III α-subunit (DnaE)”, the “3′→5′ exonuclease activity” value is reported as “This interaction stimulates the 3′→5′ exonuclease activity 5 fold”.
